The source of these data is article doi:10.1101/2021.09.30.462564 (bioRxiv, 2021).

The data set concerns the molecule itself. The data set is described as follows: crystal structure; His-SUMO tagged P. shigelloides NagK crystallised by the microbatch method; X-ray data at 100 K.

B1: N-acetylglucosamine kinase (NagK) from Plesiomonas shigelloides (enzyme)
chain: MYYGFDIGGTKIEFGAFDADLVRVARERVATPTESYAAFLDAIVTLVNNADAEFGVKGTVGIGIPGIADVETGKLLTSNIPAAMGHTLQRDLEERLQRPVKIENDANCFALSEAWDEDLRGEPSVLGLILGTGVGGGLIFNGKVHSGRANIAGEIGHTRLPYDALKLLGMENAPIFPCGCKNSGCIDNYLSGRGFEQLYDHYFSEKLSAPEIIAHYEQGERRAVQHVERFMELLAICLANIFTCLDPHVVVLGGGLSNFELIYQELPKRLPAHLLHVAKLPKIIKARHGDAGGVRGAAFLNL
notes: N-acetylglucosamine kinase NagK of Plesiomonas shigelloides, codon optimised gene in pOPINS3C; His-SUMO tagged construct (pOPINS3C) used for crystallisation; no cleavage of the tags is described; also called PsNagK; P. shigelloides NagK; source: E. coli BL21 (DE3), purified (HisTrap, Superdex 200 size exclusion); not shown: polyhistidine, N-terminal, kept; SUMO, N-terminal, kept
For B1, the binding result is “binds”.
